Reference: patent US20260055182A1 (CIS BIOPHARMA, published 2026)
Numbering of substitutions follows the chain as printed. Names may count otherwise.

B1: CE7-variant4-AG (antibody)
heavy: QVQLVQSGAEVKKPGASVKVSCKASGYTFTGYWMHWVRQAPGQGLEWIGEINPSNGRTNYNERFKSRVTLTVDKSISTAYMELSRLRSDDTAVYFCARDYYGTSYNFDYWGQGTLVTVSSASTKGPSVFPLAPSSKSTSGGTAALGCLVKDYFPEPVTVSWNSGALTSGVHTFPAVLQSSGLYSLSSVVTVPSSSLGTQTYICNVNHKPSNTKVDKKVEPKSCDKTHTCPPCPAPEAAGGPSVFLFPPKPKDTLMISRTPEVTCVVVDVSHEDPEVKFNWYVDGVEVHNAKTKPREEQYASTYRVVSVLTVLHQDWLNGKEYKCKVSNKALPASIEKTISKAKGQPREPQVYTLPPSREEMTKNQVSLTCLVKGFYPSDIAVEWESNGQPENNYKTTPPVLDSDGSFFLYSKLTVDKSRWQQGNVFSCSVMHEALHNHYTQKSLSLSPGK
light: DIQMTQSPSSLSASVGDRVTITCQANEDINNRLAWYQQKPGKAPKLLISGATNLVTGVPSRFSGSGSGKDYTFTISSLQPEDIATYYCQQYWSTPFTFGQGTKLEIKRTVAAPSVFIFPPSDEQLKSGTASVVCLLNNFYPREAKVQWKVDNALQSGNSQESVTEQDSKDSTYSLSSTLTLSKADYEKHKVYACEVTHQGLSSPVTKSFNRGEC
notes: CE7-1-2-VHA (L234A L235A P331S N297A) + CE7-1-33-VLB, aglycosylated human IgG1 kappa; also called CE7-varant4-AG
B2: CE7-variant1 (antibody, V domains shown)
VH: QVQLVQSGAEVKKPGASVKVSCKASGYTFTGYWMHWVRQAPGQGLEWIGEINPSNGRTNYNERFKSRVTLTVDKSISTAYMELSRLRSDDTAVYFCARDYYGTSYNFDYWGQGTLVTVSS
VL: DIQMTQSPSSLSASVGDRVTITCKANEDINNRLAWYQQKPGKAPKLLISGATNLVTGVPSRFSGSGSGKDYTLTISSLQPEDFATYYCQQYWSTPFTFGQGTKLEIKR
notes: Human IgG1 kappa, L234A L235A P331S; also called CE7-12-VHA-1NL1-VLA; humanized variant 1
B3: CE7-variant5 (antibody, V domains shown)
VH: B2 VH
VL: EIVMTQSPATLSVSPGERATLSCKANEDINNRLAWYQQKPGQAPRLLISGATNLVTGIPARFSGSGSGKEYTLTISSLQSEDFAVYYCQQYWSTPFTFGQGTKLEIKR
notes: Human IgG1 kappa, L234A L235A P331S; also called CE7-12-VHA-315-VLA; humanized variant 5
B4: CE7-variant13 (antibody, V domains shown)
VH: QVQLQQWGAGLLKPSETLSLTCAAYGYTFTGYWMHWIRQPPGKGLEWIGEINPSNGRTNYNERLKSRVTLSVDKSKNQASLKLSSVTAADTAVYFCARDYYGTSYNFDYWGQGTLVTVSS
VL: B2 VL
notes: Human IgG1 kappa, L234A L235A P331S; also called CE7-434-VHA-1NL1-VLA; humanized variant 13
B5: CE7-variant12 (antibody, V domains shown)
VH: B2 VH with K65Q, S66G, F95Y
VL: B3 VL with K24R, Y71F
notes: Human IgG1 kappa, L234A L235A P331S; also called CE7-12-VHB-315-VLB; humanized variant 12
B6: CE7-variant22 (antibody, V domains shown)
VH: B2 VH with R63K, K65Q, S66G, F95Y
VL: B2 VL with K24R
notes: CE7-1-2-VHC + CE7-1-NL1-VLB; human IgG1 kappa, L234A L235A P331S N297A (aglycosylated); also called humanized variant 22
B7: CE7-variant14 (antibody, V domains shown)
VH: B4 VH
VL: B2 VL with K24R
notes: Human IgG1 kappa, L234A L235A P331S; also called CE7-434-VHA-1NL1-VLB; humanized variant 14
B8: CE7-variant25 (antibody, V domains shown)
VH: B2 VH with I48M, R63K, K65Q, S66G, F95Y
VL: B2 VL
notes: CE7-1-2-VHD + CE7-1-NL1-VLA; human IgG1 kappa, L234A L235A P331S N297A (aglycosylated); also called humanized variant 25
B9: CE7-variant2 (antibody, V domains shown)
VH: B2 VH
VL: B2 VL with K24R
notes: Human IgG1 kappa, L234A L235A P331S; also called CE7-12-VHA-1NL1-VLB; humanized variant 2
B10: CE7-variant20 (antibody, V domains shown)
VH: B2 VH with K65Q, S66G, F95Y
VL: B2 VL with K24R, N26S, E27Q, D28G, T52S, T56S
notes: CE7-1-2-VHB + CE7-1-NL1-VLD; human IgG1 kappa, L234A L235A P331S N297A (aglycosylated); also called humanized variant 20
B11: CE7-variant15 (antibody, V domains shown)
VH: B4 VH
VL: B2 VL with F83I
notes: Human IgG1 kappa, L234A L235A P331S; also called CE7-434-VHA-133-VLA; humanized variant 15
B12: CE7-variant11 (antibody, V domains shown)
VH: B2 VH with K65Q, S66G, F95Y
VL: B3 VL
notes: Human IgG1 kappa, L234A L235A P331S; also called CE7-12-VHB-315-VLA; humanized variant 11
B13: CE7-variant23 (antibody, V domains shown)
VH: B2 VH with R63K, K65Q, S66G, F95Y
VL: B2 VL with K24R, T52S, T56S
notes: CE7-1-2-VHC + CE7-1-NL1-VLC; human IgG1 kappa, L234A L235A P331S N297A (aglycosylated); also called humanized variant 23
B14: CE7-variant21 (antibody, V domains shown)
VH: B2 VH with R63K, K65Q, S66G, F95Y
VL: B2 VL
notes: CE7-1-2-VHC + CE7-1-NL1-VLA; human IgG1 kappa, L234A L235A P331S N297A (aglycosylated); also called humanized variant 21
B15: CE7-variant9 (antibody, V domains shown)
VH: B2 VH with K65Q, S66G, F95Y
VL: B2 VL with F83I
notes: Human IgG1 kappa, L234A L235A P331S; also called CE7-12-VHB-133-VLA; humanized variant 9
B16: CE7-variant24 (antibody, V domains shown)
VH: B2 VH with R63K, K65Q, S66G, F95Y
VL: B2 VL with K24R, N26S, E27Q, D28G, T52S, T56S
notes: CE7-1-2-VHC + CE7-1-NL1-VLD; human IgG1 kappa, L234A L235A P331S N297A (aglycosylated); also called humanized variant 24
B17: CE7-variant6 (antibody, V domains shown)
VH: B2 VH
VL: B3 VL with K24R, Y71F
notes: Human IgG1 kappa, L234A L235A P331S; also called CE7-12-VHA-315-VLB; humanized variant 6
B18: CE7-variant4 (antibody)
heavy: B1 heavy with A300N
light: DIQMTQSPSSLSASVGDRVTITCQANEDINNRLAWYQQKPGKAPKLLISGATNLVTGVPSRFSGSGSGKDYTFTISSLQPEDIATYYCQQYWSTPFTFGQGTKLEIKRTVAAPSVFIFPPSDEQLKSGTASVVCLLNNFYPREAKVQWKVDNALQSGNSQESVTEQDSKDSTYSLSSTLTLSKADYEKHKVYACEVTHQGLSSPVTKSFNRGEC
notes: Human IgG1 kappa, L234A L235A P331S; also called CE7-12-VHA-133-VLB; humanized variant 4
B19: CE7-variant19 (antibody, V domains shown)
VH: B2 VH with K65Q, S66G, F95Y
VL: B2 VL with K24R, T52S, T56S
notes: CE7-1-2-VHB + CE7-1-NL1-VLC; human IgG1 kappa, L234A L235A P331S N297A (aglycosylated); also called humanized variant 19
B20: CE7-variant10 (antibody, V domains shown)
VH: B2 VH with K65Q, S66G, F95Y
VL: B2 VL with K24Q, L73F, F83I
notes: Human IgG1 kappa, L234A L235A P331S; also called CE7-12-VHB-133-VLB; humanized variant 10
B21: CE7-variant8 (antibody, V domains shown)
VH: B2 VH with K65Q, S66G, F95Y
VL: B2 VL with K24R
notes: Human IgG1 kappa, L234A L235A P331S; also called CE7-12-VHB-1NL1-VLB; humanized variant 8
B22: CE7-variant16 (antibody, V domains shown)
VH: B4 VH
VL: B2 VL with K24Q, L73F, F83I
notes: Human IgG1 kappa, L234A L235A P331S; also called CE7-434-VHA-133-VLB; humanized variant 16
B23: CE7-variant18 (antibody)
heavy: QVQLQQWGAGLLKPSETLSLTCAAYGYTFTGYWMHWIRQPPGKGLEWIGEINPSNGRTNYNERLKSRVTLSVDKSKNQASLKLSSVTAADTAVYFCARDYYGTSYNFDYWGQGTLVTVSSASTKGPSVFPLAPSSKSTSGGTAALGCLVKDYFPEPVTVSWNSGALTSGVHTFPAVLQSSGLYSLSSVVTVPSSSLGTQTYICNVNHKPSNTKVDKKVEPKSCDKTHTCPPCPAPEAAGGPSVFLFPPKPKDTLMISRTPEVTCVVVDVSHEDPEVKFNWYVDGVEVHNAKTKPREEQYNSTYRVVSVLTVLHQDWLNGKEYKCKVSNKALPASIEKTISKAKGQPREPQVYTLPPSREEMTKNQVSLTCLVKGFYPSDIAVEWESNGQPENNYKTTPPVLDSDGSFFLYSKLTVDKSRWQQGNVFSCSVMHEALHNHYTQKSLSLSPGK
light: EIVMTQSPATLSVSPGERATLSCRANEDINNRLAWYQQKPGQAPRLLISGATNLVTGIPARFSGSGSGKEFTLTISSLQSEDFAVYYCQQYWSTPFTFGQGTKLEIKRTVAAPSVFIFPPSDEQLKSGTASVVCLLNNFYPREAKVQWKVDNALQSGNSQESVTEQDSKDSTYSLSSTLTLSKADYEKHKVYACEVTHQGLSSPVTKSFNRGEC
notes: Human IgG1 kappa, L234A L235A P331S; also called CE7-434-VHA-315-VLB; humanized variant 18
B24: CE7-variant17 (antibody, V domains shown)
VH: B4 VH
VL: B3 VL
notes: Human IgG1 kappa, L234A L235A P331S; also called CE7-434-VHA-315-VLA; humanized variant 17
B25: LV1 (antibody, V domains shown)
VH: QVQLQQPGAELVKPGASVKLSCKASGYTFTGYYMHWVKQRPGHGLEWIGEINPSNGRTNYNERFKSKATLTVDKSSTTAFMQLSGLTSEDSAVYFCARDYYGTSYNFDYWGQGTTLTVSS
VL: DIQMTQSSSSFSVSLGDRVTITCKANEDINNRLAWYQQTPGNSPRLLISGATNLVTGVPSRFSGSGSGKDYTLTITSLQAEDFATYYCQQYWSTPFTFGSGTELEIKR
notes: CE7-VH-chimeric-WH33Y + CE7-VL-chimeric; chimeric CE7, human IgG1 kappa, L234A L235A P331S N297A; also called liability variant 1
B26: LV5 (antibody, V domains shown)
VH: B25 VH with Y33W
VL: B25 VL with N31L
notes: CE7-VH-chimeric + CE7-VL-chimeric-NL31L; chimeric CE7, human IgG1 kappa, L234A L235A P331S N297A; also called liability variant 5
B27: LV7 (antibody, V domains shown)
VH: B25 VH with Y33W
VL: B25 VL with W92Y
notes: CE7-VH-chimeric + CE7-VL-chimeric-WL92Y; chimeric CE7, human IgG1 kappa, L234A L235A P331S N297A; also called liability variant 7
B28: LV4 (antibody, V domains shown)
VH: B25 VH with Y33W, G56A
VL: B25 VL
notes: CE7-VH-chimeric-GH55A + CE7-VL-chimeric; chimeric CE7, human IgG1 kappa, L234A L235A P331S N297A; also called liability variant 4
B29: LV6 (antibody, V domains shown)
VH: B25 VH with Y33W
VL: B25 VL with N31A
notes: CE7-VH-chimeric + CE7-VL-chimeric-NL31A; chimeric CE7, human IgG1 kappa, L234A L235A P331S N297A; also called liability variant 6
B30: LV2 (antibody, V domains shown)
VH: B25 VH with Y33F
VL: B25 VL
notes: CE7-VH-chimeric-WH33F + CE7-VL-chimeric; chimeric CE7, human IgG1 kappa, L234A L235A P331S N297A; also called liability variant 2
B31: LV3 (antibody, V domains shown)
VH: B25 VH with Y33L
VL: B25 VL
notes: CE7-VH-chimeric-WH33L + CE7-VL-chimeric; chimeric CE7, human IgG1 kappa, L234A L235A P331S N297A; also called liability variant 3
B32: LV8 (antibody, V domains shown)
VH: B25 VH with Y33W
VL: B25 VL with W92F
notes: CE7-VH-chimeric + CE7-VL-chimeric-WL92F; chimeric CE7, human IgG1 kappa, L234A L235A P331S N297A; also called liability variant 8

biological target: T1, L1-CAM recombinant protein (His Tag), human (human, UniProt P32004 20-1120); assay: SPR (Biacore 8K); L1-CAM immobilised on CM5 chip, antibody as analyte
T1 construct: Bought protein; also called CD171; human L1-CAM; not shown: His tag
T1 sequence (P32004 20-1120 limits assumed): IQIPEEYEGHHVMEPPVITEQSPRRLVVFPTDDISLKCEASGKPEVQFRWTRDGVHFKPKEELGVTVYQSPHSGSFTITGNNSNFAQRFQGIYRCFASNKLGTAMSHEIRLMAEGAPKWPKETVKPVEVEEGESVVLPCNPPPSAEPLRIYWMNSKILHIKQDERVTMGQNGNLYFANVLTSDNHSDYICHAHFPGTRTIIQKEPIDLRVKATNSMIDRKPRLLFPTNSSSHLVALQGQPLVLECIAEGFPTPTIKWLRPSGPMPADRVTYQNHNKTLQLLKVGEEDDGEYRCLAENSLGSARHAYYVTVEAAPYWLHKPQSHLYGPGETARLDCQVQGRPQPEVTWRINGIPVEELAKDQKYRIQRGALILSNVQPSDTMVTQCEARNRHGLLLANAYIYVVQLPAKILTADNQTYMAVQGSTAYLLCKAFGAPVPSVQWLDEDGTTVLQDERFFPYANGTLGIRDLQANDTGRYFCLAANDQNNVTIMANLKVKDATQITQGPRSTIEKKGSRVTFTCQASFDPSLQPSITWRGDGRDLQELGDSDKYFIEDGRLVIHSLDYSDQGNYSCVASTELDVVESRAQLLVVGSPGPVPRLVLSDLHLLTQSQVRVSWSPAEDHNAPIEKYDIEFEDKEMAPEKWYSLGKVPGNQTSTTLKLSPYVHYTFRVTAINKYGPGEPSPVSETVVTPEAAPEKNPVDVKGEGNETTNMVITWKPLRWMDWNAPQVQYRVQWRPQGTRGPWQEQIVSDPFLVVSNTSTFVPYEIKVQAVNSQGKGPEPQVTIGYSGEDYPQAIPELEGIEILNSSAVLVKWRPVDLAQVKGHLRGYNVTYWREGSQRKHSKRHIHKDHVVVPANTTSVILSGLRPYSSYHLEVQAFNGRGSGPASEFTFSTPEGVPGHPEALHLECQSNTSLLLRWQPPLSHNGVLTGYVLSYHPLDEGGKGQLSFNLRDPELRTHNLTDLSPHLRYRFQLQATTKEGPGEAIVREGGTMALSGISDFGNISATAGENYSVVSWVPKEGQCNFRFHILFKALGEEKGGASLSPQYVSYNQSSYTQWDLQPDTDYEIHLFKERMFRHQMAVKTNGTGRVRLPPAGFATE

Row | Binder | Kd [pM] | koff [s⁻¹] | kon [M⁻¹ s⁻¹]
1 | B1 | 0.664 | 8.18e-07 | 1.23e+06

biological target: T1, L1-CAM recombinant protein (His Tag), …; assay: ELISA, human L1-CAM coated at 2 µg/ml

Row | Binder | EC50 [µg/mL]
2 | B2 | 0.0288
3 | B3 | 0.0282
4 | B4 | 0.05
5 | B5 | 0.0126
6 | B6 | 0.024
7 | B7 | 0.0157
8 | B8 | 0.0272
9 | B9 | 0.0128
10 | B10 | 0.0317
11 | B11 | 0.0112
12 | B12 | 0.0148
13 | B13 | 0.037
14 | B14 | 0.0299
15 | B15 | 0.0197
16 | B16 | 0.0396
17 | B17 | 0.0255

Row | Binder | EC50 [µg/mL]
18 | B18 | 0.012
19 | B19 | 0.0335
20 | B20 | 0.0136
21 | B21 | 0.0129
22 | B22 | 0.0132
23 | B23 | 0.00968
24 | B24 | 0.0108
25 | B25 | 0.0362
26 | B26 | 0.0318
27 | B27 | 0.0246
28 | B28 | 0.0394
29 | B29 | 0.0268
30 | B30 | 0.0459
31 | B31 | 0.0328
32 | B32 | 0.0335
